Results on eight molecules are retold here after paper PMC10162664, “Microbial β-glucuronidases drive human periodontal disease etiology” (Science Advances, 2023).

Data set [1] deals with T1, TlGUS L1 (Treponema lecithinolyticum β-glucuronidase) (Treponema lecithinolyticum, UniProt A0AA82WPE8).
T1 construct: recombinant, N-terminal (His)6 tag retained
The data set is described as follows: […] Å crystal structure. The format is binding.

Data set [2] has as its target T1, TlGUS L1 (Treponema lecithinolyticum β-glucuronidase). In words: […] Å crystal structure (as UNC4917-GlcA conjugate formed with PNPG); 4-MUG hydrolysis IC50. The format is biochemical.
Data set [3] shares this target. The data set is described as follows: […] Å crystal structure (as ciprofloxacin-GlcA conjugate formed with PNPG); IC50. The format is biochemical.
Data set [4] addresses Tannerella forsythia GUS L2 (loop 2 β-glucuronidase) (Tannerella forsythia). In words: SEC-MALS; Superdex 200; protein at 2 mg/ml in 20 mM Hepes (pH 7.4), 300 mM NaCl; 50 μl injected, 0.5 ml/min. For orientation: Size exclusion chromatography separates by hydrodynamic size, large species first.
Data set [5] shares this target. In words: crystal structure; hanging drop vapor diffusion at room temperature; quaternary structure seen in the crystal.
Data set [6] concerns the target Tannerella forsythia GUS mL1 (mini-loop 1 β-glucuronidase) (Tannerella forsythia). In words: SEC-MALS; Superdex 200; protein at 2 mg/ml in 20 mM Hepes (pH 7.4), 300 mM NaCl; 50 μl injected, 0.5 ml/min.
The target is the same in data set [7]. The data set is described as follows: crystal structure; hanging drop vapor diffusion at room temperature; quaternary structure seen in the crystal.
Data set [8] deals with Cc1cc(=O)oc2cc(O[C@@H]3O[C@H](C(=O)O)[C@@H](O)[C@H](O)[C@H]3O)ccc12. The data set is described as follows: purified protein. The conditions noted are these: pH 5.0.
Data set [9] concerns the target Treponema lecithinolyticum GUS L1 (loop 1 β-glucuronidase) (Treponema lecithinolyticum). The data set is described as follows: SEC-MALS; Superdex 200; protein at 2 mg/ml in 20 mM Hepes (pH 7.4), 300 mM NaCl; 50 μl injected, 0.5 ml/min.
The target is the same in data set [10]. In words: crystal structure; hanging drop vapor diffusion at room temperature; quaternary structure seen in the crystal.
Substrate in the data set “purified protein”: Cc1cc(=O)oc2cc(O[C@@H]3O[C@H](C(=O)O)[C@@H](O)[C@H](O)[C@H]3O)ccc12
The data set is described as follows: purified protein. The conditions noted are these: pH 5.0. This is another data set of the same source.

Turning to `CNc1ccc2c(n1)sc1c(N3CCN([C@@H]4O[C@H](C(=O)O)[C@@H](O)[C@H](O)[C@H]4O)CC3)nc(NC)nc12` [UNC4917-GlcA, UNC4917-GlcA conjugate], in data set [1], the “1.75 Å crystal structure” value is reported as “The UNC4917-GlcA conjugate is located within the active site”.

For the molecule `CNc1ccc2c(n1)sc1c(N3CCNCC3)nc(NC)nc12` [UNC4917], 2.5 µM corresponded to half-maximal inhibition in data set [2] (IC50). As to `O=C(O)c1cn(C2CC2)c2cc(N3CCNCC3)c(F)cc2c1=O` [ciprofloxacin], half-maximal inhibition in data set [3] (IC50) required 18.3 µM.

Turning to “Tannerella forsythia GUS L2 (loop 2 β-glucuronidase) (enzyme)”, the stoichiometry N in data set [4] and in [5] was 2 throughout. Consider “Tannerella forsythia GUS mL1 (mini-loop 1 β-glucuronidase) (enzyme)”, for which the stoichiometry N in data set [6] and in data set [7] was 4 in each case. On to “TlGUS L1 (Treponema lecithinolyticum β-glucuronidase) (Treponema lecithinolyticum)”, for which, in data set [8], the Km (usually the concentration of substrate that gives half-maximal velocity) turned out to be 6.8 ± 1 µM; the kcat (commonly the number of substrate molecules converted per active site and unit of time at saturation) was found to be 19 ± 1 s⁻¹; the kcat/Km (in general, the second-order rate constant that governs catalysis at low substrate concentration) was determined as 2.8e+06 M⁻¹ s⁻¹. Turning to “Treponema lecithinolyticum GUS L1 (loop 1 β-glucuronidase) (enzyme)”, the stoichiometry N in [9] and in [10] was 4 in each case.

B1: human GUS (β-glucuronidase) (Homo sapiens) (protein)
chain: LQGGMLYPQESPSRECKELDGLWSFRADFSDNRRRGFEEQWYRRPLWESGPTVDMPVPSSFNDISQDWRLRHFVGWVWYEREVILPERWTQDLRTRVVLRIGSAHSYAIVWVNGVDTLEHEGGYLPFEADISNLVQVGPLPSRLRITIAINNTLTPTTLPPGTIQYLTDTSKYPKGYFVQNTYFDFFNYAGLQRSVLLYTTPTTYIDDITVTTSVEQDSGLVNYQISVKGSNLFKLEVRLLDAENKVVANGTGTQGQLKVPGVSLWWPYLMHERPAYLYSLEVQLTAQTSLGPVSDFYTLPVGIRTVAVTKSQFLINGKPFYFHGVNKHEDADIRGKGFDWPLLVKDFNLLRWLGANAFRTSHYPYAEEVMQMCDRYGIVVIDECPGVGLALPQFFNNVSLHHHMQVMEEVVRRDKNHPAVVMWSVANEPASHLESAGYYLKMVIAHTKSLDPSRPVTFVSNSNYAADKGAPYVDVICLNSYYSWYHDYGHLELIQLQLATQFENWYKKYQKPIIQSEYGAETIAGFHQDPPLMFTEEYQKSLLEQYHLGLDQKRRKYVVGELIWNFADFMTEQSPTRVLGNKKGIFTRQRQPKSAAFLLRERYWKIANETRYPHSVAKSQCLENSLFT
In the case of B1, in “purified protein”, the Km was 84 ± 7 µM, the kcat was found to be 2.2 s⁻¹ and the kcat/Km turned out to be 26000 M⁻¹ s⁻¹.
